The results in this text go back to patent US20150246947A1 (BAXALTA, published 2015).

A word on the IC50: it is the concentration at which inhibition is half-maximal. A high value points to lower potency. Broadly, the Kd is the constant that tells how readily two partners part at equilibrium. What is called koff is a measure of how fast the partners let go of each other. Low values mean a long-lived complex, high ones a short-lived complex. As a reminder, the kon is the second-order rate constant of association. A higher kon goes with fast association.

Test [1] has as its target T1, human Protein S (human, UniProt P07225 42-676).
T1 construct: Called 'full length Protein S' / 'human full-length Protein S'; It was coated on plates (ELISA), Eu-labeled (LANCE) or immobilized on a chip (Biacore); also called PS; full length Protein S
T1 sequence: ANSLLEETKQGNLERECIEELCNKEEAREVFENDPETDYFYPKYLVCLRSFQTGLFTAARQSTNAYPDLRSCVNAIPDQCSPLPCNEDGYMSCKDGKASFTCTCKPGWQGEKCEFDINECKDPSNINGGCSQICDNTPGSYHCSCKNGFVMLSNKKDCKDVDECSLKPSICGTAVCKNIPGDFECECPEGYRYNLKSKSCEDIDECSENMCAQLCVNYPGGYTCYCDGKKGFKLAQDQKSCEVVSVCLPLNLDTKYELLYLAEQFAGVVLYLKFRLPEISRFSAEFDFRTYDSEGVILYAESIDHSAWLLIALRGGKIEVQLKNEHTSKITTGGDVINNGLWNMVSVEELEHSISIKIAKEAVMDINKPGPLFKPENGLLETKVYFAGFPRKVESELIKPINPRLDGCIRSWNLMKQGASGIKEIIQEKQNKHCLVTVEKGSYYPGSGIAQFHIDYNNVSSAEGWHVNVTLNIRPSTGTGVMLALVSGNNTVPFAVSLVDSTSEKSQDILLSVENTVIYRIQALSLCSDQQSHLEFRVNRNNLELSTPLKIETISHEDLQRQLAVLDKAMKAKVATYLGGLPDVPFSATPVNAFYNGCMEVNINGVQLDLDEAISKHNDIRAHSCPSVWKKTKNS
Nature of the test: competition ELISA; Protein S coated; competitor biotinylated tracer JBS0684. Here is the method:
The competition (IC50) ELISA was performed using biotinylated tracer peptide JBS0684 to compete for Protein S-binding with candidate peptides. Peptides that compete with the tracer bind the same region of Protein S as the tracer (and each other). Ninety-six well PolySorp plates (Nunc) were coated with 3 μg/mL Protein S in coating buffer (15 mM Na₂CO₃, 35 mM NaHCO₃, pH 9.6) over night. […] Plates were then washed three times with HNaT. JBS0684 was applied at a concentration corresponding to the EC90 value determined in the binding ELISA. A competitor stock solution of peptide (10 mM) was diluted 1/33.3 in HNaT without HSA, and a serial 1/3 dilution was prepared with HNaT with 3% DMSO. The dilution was further diluted with the biotinylated tracer peptide in a ratio of 1:6 (20 μl competitor dilution and 100 μl tracer peptide). The mixture of competitor and tracer peptide was applied to the Protein S-coated microtiter plate and incubated for 1.5 hours. The plates were washed three times with HNaT. Peptide-Protein S binding was detected by applying HRP-conjugated streptavidin to the microtiter plate, incubating the mixture for one hour, washing the plate three times with HNaT, applying TMB (3,3′5,5′-Tetramethylbenzidin), and detecting the subsequent chromogenic conversion of TMB by HRP. IC50 measurements of peptides are provided herein (see, e.g., Table 3).
A general note: An ELISA detects its analyte on a solid surface through an enzyme-linked reagent.

For test [2], the target named is T1, human Protein S. Nature of the test: LANCE TR-FRET; peptide added to preformed C4BP/Protein S complex; competitor C4BP. Here is the method: To investigate the effect of the peptides described herein on PS/C4BP complexes, a LANCE IC50 assay was established using methods similar to those described above. JBS2572 or JBS3216 was added to a preformed C4BP/PS complex. Changes in the complex concentration were followed by recording the TR-FRET signal. For both peptides, a time- and concentration-dependent dissociation of the C4BP/PS complex was observed. […] The time-dependency of the complex reduction was similar for both peptides. After two hours of incubation in the presence of 100 nM JBS2572 or JBS3216, the C4BP/PS complex was reduced to 60% and 50%, respectively. In addition, binding of biotinylated JBS2572 to Protein S was inhibited by C4BP in the LANCE IC50 assay. Pull-down experiments where JBS2697 was coupled to streptavidin sepharose and incubated for one hour at room temperature with (a) Protein S (1.6 pmol) (b) C4BP (8.5 pmol) and (c) Protein S (1.6 pmol)+C4BP (8.5 pmol) supported the results from the modified LANCE IC50 assay. JBS2697 interacted with free Protein S only from experiment (a) with Protein S alone and from experiment (c) with the C4BP-Protein S mixture.
Background: Time-resolved FRET reads energy transfer from a long-lived donor to a nearby acceptor.

The target in test [3] is T1, human Protein S. The test can be described thus: Biacore (SPR), Protein S immobilized, 25 °C. The protocol:
Protein S affinity also was determined via Biacore (Biacore 3000 or Biacore T200) using human full-length Protein S and human GAS6. Briefly, 1000 RU of Protein S or GAS6 were immobilized on a CMS chip. In order to probe the kinetics of Protein S binding peptides to Protein S, the peptides were injected at various concentrations in a HBS-buffer containing 3 mM CaCl₂ and 1% DMSO to the flow cell and allowed to interact with the immobilized proteins on the sensor chip. The chip could be regenerated with 4 M MgCl₂ in HBS-buffer. Sensorgrams were fitted to a Langmuir binding model for the determination of kₒₙ and koff and the calculation of KD. Peptides were tested on their specificity to Protein S with peptide binding studies on the anti-target GAS6.

Regarding Ac-TGLVSAGWYDYNFDHYREFT-NH2 (also called parent peptide JBS2572) [JBS2572], the IC50 with human Protein S [1] stood at 2.5 nM. This molecule returned a half-maximal inhibitory concentration (IC50) in the test with human Protein S [2] of 2 nM. In the test with human Protein S [3], this molecule came in with a Kd of 6 nM, an off-rate (koff) of 0.00148 s⁻¹ and a kon of 248000 M⁻¹ s⁻¹.
